In US20130280162A1:

Biological target: human uPAR on 293/uPAR cells (human) (UniProt Q03405)
Assay: cell-based or functional assay

Chain of human uPAR on 293/uPAR cells (human) (Q03405 23-305): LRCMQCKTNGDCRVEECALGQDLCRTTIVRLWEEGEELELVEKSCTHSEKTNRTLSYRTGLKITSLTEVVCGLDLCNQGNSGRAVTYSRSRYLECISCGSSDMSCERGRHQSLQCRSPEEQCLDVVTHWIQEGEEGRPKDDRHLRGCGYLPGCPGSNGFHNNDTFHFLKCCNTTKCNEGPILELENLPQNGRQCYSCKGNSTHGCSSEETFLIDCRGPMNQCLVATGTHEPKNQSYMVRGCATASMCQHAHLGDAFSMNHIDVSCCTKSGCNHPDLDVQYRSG
Chain of uPAR-lockV2 (SMB-GFD/hFc, disulphide-linked homodimer) (Fc fusion) (chain): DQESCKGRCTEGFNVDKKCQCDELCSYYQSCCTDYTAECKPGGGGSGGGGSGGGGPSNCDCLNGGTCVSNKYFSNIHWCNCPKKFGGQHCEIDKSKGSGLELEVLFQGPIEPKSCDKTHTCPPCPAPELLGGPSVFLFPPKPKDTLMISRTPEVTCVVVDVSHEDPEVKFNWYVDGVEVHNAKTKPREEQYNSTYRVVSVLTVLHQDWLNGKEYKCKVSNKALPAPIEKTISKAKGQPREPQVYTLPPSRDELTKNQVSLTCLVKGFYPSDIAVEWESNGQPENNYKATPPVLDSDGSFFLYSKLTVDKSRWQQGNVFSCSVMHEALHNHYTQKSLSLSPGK

uPAR-lockV2 (SMB-GFD/hFc, disulphide-linked homodimer) (Fc fusion)
IC50, inhibition of 293/uPAR cell adhesion to VN(1-66)/Fc^RAD (RTCA impedance): 0.59 nM
